The experiment deals with T1, RBD from MERS-CoV (MERS-CoV, UniProt K9N5Q8 367-606).
T1 construct: domain: RBD
The experiment can be described thus: fluorescence response of the sensor (FIG. 12).

B1: VHH72 noK V104NBDxK (VHH72 noK V104K functionalized with NBDx-NHS at the V104K position) (VHH)
VHH: QVQLQESGGGLVQAGGSLRLSCAASGRTFSEYAMGWFRQAPGREREFVATISWSGGSTYYTDSVRGRFTISRDNARNTVYLQMNSLRPDDTAVYYCAAAGLGTKVSEWDYDYDYWGQGTQVTVSS
notes: also called nanoX; NanoX
For the molecule B1, the binding result is recorded as “no binding”.

These data come from US20240201179A1 (Harvard, published 2024).
